Key:
c-Src SH2 = assay: SH2 binding enrichment of the phosphorylated peptide, bacterial display (enrichment ratio); higher = better substrate or ligand; peptides without Tyr show the background
Grb2 SH2 = Grb2 SH2 (UniProt P62993); assay: as above
SHP2-C SH2 = assay: as above
Jak2 = Jak2 (UniProt O60674); assay: phosphorylation enrichment, bacterial display (enrichment ratio); higher = better substrate or ligand; peptides without Tyr show the background
Fer (mouse) = assay: as above
Hck = Hck (UniProt P08631); assay: as above
FGFR1 = FGFR1 (UniProt P11362); assay: as above
Fyn = Fyn (UniProt P06241); assay: as above
c-Abl (mouse) = assay: as above
FGFR3 = FGFR3 (UniProt P22607); assay: as above
c-Src = assay: as above
AncSZ = assay: as above
MERTK = MERTK (UniProt Q12866); assay: as above
Fes = Fes (UniProt P07332); assay: as above
EPHB2 = EPHB2 (UniProt P29323); assay: as above
EPHB1 = EPHB1 (UniProt P54762); assay: as above
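For SH2 binding enrichment of the phosphorylated peptide, bacterial display in this document: peptide library displayed on the E. coli surface as eCPX fusions, selected cells deep-sequenced, score is each peptide's frequency after selection divided by its frequency in the input.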
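For phosphorylation enrichment, bacterial display in this document: 11-residue human phosphosite peptides and single-mutation variants displayed on the E. coli surface, counted by deep sequencing, each peptide's frequency after selection divided by its frequency in the unselected input library; frequency after pTyr selection over input frequency; kinase dosed for 20-30% of maximal phosphorylation in three min.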

MERTK, sequence (Q12866 whole entry, looked up): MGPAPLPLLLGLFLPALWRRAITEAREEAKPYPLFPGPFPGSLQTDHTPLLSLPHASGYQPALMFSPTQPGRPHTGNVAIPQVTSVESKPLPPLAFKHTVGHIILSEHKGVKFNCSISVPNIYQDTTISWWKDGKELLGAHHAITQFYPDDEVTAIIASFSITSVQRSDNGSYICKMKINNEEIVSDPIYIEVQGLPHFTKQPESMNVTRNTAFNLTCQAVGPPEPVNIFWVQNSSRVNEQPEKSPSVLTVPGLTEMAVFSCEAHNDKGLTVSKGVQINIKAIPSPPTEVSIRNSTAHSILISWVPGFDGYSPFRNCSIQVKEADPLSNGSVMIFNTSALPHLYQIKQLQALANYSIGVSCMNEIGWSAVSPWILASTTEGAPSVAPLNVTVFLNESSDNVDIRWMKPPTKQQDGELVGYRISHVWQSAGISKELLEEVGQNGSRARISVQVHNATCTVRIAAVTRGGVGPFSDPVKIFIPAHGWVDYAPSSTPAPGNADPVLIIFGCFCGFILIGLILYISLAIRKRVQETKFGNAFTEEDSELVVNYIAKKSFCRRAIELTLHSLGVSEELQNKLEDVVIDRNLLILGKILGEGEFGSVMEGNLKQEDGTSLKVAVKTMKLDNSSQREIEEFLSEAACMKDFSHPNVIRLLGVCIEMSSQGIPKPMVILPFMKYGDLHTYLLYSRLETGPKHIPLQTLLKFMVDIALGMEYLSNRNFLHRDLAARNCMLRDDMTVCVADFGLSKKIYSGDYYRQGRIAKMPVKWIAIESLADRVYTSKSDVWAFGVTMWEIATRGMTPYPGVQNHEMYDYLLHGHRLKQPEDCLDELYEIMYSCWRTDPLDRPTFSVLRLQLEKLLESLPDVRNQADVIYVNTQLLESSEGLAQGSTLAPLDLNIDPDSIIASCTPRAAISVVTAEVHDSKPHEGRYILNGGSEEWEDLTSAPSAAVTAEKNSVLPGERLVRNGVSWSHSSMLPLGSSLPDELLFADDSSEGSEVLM
Hck, sequence (P08631 whole entry, looked up): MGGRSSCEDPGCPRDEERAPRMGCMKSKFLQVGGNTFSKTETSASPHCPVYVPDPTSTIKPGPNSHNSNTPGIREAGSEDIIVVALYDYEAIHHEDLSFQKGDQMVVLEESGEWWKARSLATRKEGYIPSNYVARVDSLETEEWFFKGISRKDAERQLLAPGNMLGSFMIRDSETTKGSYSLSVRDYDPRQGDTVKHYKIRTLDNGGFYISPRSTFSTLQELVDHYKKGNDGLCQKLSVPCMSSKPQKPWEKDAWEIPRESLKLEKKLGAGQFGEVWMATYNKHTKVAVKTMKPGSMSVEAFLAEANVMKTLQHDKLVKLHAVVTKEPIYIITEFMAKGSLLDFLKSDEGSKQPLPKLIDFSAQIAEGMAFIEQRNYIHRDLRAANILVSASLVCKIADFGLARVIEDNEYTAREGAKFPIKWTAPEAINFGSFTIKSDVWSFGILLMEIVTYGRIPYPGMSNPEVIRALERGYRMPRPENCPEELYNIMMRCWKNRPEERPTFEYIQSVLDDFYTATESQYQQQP
Fes, sequence (P07332 whole entry, looked up): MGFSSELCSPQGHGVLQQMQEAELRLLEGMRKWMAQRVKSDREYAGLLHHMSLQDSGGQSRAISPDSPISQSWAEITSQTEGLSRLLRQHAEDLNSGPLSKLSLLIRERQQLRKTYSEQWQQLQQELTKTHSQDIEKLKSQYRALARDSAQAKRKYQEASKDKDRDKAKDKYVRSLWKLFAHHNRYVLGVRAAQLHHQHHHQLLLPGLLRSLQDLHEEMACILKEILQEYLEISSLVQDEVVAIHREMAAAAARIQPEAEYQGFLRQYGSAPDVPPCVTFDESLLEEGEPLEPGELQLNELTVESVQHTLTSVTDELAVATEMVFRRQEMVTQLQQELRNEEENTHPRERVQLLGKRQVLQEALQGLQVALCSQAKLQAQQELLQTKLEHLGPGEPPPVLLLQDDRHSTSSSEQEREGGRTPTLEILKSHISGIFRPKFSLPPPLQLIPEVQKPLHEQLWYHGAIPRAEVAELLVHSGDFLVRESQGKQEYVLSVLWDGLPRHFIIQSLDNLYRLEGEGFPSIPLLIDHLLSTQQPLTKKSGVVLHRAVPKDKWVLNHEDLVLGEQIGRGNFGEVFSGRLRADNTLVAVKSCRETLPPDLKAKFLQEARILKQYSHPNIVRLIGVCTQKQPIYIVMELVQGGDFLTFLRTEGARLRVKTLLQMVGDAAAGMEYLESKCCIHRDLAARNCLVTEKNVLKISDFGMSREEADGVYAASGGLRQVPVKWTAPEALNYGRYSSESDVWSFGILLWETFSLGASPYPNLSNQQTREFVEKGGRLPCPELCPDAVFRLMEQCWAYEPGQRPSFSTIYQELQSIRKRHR
FGFR1, sequence (P11362 whole entry, looked up): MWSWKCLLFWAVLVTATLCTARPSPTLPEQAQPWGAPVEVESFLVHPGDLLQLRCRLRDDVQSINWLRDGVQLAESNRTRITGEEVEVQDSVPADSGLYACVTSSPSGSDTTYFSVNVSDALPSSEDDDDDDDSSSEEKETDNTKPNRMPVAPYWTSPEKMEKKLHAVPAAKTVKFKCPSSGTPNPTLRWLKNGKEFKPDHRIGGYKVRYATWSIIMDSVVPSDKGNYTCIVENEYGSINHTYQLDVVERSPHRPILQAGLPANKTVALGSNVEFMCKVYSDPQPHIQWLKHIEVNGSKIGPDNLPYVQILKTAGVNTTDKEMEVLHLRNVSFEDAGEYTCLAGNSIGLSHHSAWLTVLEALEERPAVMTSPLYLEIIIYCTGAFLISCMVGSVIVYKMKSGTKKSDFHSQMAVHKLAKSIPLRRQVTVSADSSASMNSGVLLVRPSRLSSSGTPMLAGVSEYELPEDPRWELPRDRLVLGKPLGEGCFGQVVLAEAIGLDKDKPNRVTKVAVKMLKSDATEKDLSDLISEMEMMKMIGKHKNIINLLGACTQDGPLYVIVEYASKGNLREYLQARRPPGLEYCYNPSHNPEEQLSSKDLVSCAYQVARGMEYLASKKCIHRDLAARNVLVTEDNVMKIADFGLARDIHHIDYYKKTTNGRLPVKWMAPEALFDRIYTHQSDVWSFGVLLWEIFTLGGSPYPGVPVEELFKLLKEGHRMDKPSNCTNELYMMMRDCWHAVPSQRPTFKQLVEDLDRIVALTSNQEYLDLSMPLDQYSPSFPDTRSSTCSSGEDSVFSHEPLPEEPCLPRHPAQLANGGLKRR
Fyn, sequence (P06241 whole entry, looked up): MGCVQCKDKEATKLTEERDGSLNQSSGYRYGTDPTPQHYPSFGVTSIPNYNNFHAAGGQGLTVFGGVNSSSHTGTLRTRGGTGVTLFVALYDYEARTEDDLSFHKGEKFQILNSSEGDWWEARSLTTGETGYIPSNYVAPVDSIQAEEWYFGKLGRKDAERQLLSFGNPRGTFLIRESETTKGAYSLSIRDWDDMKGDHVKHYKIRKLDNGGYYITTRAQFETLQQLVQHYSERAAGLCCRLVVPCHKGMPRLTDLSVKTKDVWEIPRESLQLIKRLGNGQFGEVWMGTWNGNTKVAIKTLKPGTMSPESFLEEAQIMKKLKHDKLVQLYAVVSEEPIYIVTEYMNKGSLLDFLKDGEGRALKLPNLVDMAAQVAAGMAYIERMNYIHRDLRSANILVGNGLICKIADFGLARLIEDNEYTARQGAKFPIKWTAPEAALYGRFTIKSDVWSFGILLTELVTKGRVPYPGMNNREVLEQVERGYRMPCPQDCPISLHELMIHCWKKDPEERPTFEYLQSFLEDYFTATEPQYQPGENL
FGFR3, sequence (P22607 whole entry, looked up): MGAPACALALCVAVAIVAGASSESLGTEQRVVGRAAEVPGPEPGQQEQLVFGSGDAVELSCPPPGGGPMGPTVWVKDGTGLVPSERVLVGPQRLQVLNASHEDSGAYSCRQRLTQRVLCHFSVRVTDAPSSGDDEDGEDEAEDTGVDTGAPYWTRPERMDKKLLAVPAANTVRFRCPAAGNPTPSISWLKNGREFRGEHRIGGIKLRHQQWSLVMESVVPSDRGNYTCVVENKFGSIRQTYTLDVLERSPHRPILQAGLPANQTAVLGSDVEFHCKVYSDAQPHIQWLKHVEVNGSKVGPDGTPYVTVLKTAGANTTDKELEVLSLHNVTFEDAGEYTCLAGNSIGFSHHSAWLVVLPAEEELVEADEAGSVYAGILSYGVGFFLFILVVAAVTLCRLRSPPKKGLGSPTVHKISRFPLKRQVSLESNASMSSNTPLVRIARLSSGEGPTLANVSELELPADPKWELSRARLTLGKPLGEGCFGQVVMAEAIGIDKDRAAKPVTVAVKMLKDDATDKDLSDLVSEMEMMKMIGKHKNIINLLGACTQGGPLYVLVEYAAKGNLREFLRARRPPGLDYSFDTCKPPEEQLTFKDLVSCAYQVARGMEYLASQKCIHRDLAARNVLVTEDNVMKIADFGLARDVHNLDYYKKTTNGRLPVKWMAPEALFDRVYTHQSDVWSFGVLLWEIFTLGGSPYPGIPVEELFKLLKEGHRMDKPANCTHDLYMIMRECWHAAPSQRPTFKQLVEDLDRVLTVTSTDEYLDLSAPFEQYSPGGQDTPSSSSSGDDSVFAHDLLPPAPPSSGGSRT

Sequence	SH2 binding enrichment (c-Src SH2)	SH2 binding enrichment (Grb2 SH2)	SH2 binding enrichment (SHP2-C SH2)	phosphorylation enrichment (Jak2)	phosphorylation enrichment (Fer (mouse))	phosphorylation enrichment (Hck)	phosphorylation enrichment (FGFR1)	phosphorylation enrichment (Fyn)	phosphorylation enrichment (c-Abl (mouse))	phosphorylation enrichment (FGFR3)	phosphorylation enrichment (c-Src)	phosphorylation enrichment (AncSZ)	phosphorylation enrichment (MERTK)	phosphorylation enrichment (Fes)	phosphorylation enrichment (EPHB2)	phosphorylation enrichment (EPHB1)
PELINYHQHYS [BTK_Y361_N365Y]	0.658	1.08	1.07	0.577	0.427	0.356	0.769	0.662	0.563	0.585	0.5	0.742	0.319	0.688	1.68	1.23
RHTRSYDYMEG [FGF7_Y56]	3.83	1.33	1.06	0.513	0.533	0.716	0.7	0.561	0.552	0.529	0.389	0.609	0.628	0.958	0.92	0.534
ALTRSYVREKV [CYP2C8_Y243_I244V]	0.495	0.804	0.551	0.353	0.398	0.437	0.364	0.387	0.617	0.522	0.316	0.571	0.459	0.532	0.462	0.42
MSSLFYANTLF [HOXB7_Y6_YF]	0.509	0.905	0.861	0.859	3.42	0.905	0.656	0.905	0.693	0.735	0.883	0.906	3.91	1.19	0.834	1.14
VHLYAYDWISI [BEST1_Y227_G222V]	1.18	1.48	1.42	1.33	13	1.83	5.73	1.18	0.865	4.71	1.44	2.32	8.36	3.05	5.88	7.2
SGFESYGSSSS [RPA2_Y9_Y14S]	0.425	0.735	0.737	0.555	0.521	0.484	0.461	0.453	0.633	0.599	0.541	0.651	0.502	0.658	0.617	0.47
PHMQTYEVDPN [SDHB_Y61_L65P]	0.555	0.974	0.717	1.04	0.758	0.791	0.511	0.586	0.932	0.761	1.35	1.19	0.522	1.49	0.628	0.782
IIGNGYYFRVF [MYBPC3_Y1135]	0.472	0.852	0.651	1.46	0.413	0.373	0.374	0.327	0.775	0.79	0.335	1.08	0.318	1.16	0.619	0.628
RHPFFFAPELL [ALB_Y174_Y174F_YF]	1.05	1.34	1.44	1.15	0.529	0.859	0.619	0.771	1.02	1.64	0.932	1.64	0.727	1.72	0.842	0.947

More lines, main results first:

SH2 binding enrichment (c-Src SH2)	SH2 binding enrichment (Grb2 SH2)	SH2 binding enrichment (SHP2-C SH2)	Sequence	phosphorylation enrichment (Jak2)	phosphorylation enrichment (Fer (mouse))	phosphorylation enrichment (Hck)	phosphorylation enrichment (FGFR1)	phosphorylation enrichment (Fyn)	phosphorylation enrichment (c-Abl (mouse))	phosphorylation enrichment (FGFR3)	phosphorylation enrichment (c-Src)	phosphorylation enrichment (AncSZ)	phosphorylation enrichment (MERTK)	phosphorylation enrichment (Fes)	phosphorylation enrichment (EPHB2)	phosphorylation enrichment (EPHB1)
0.541	0.795	0.806	SSENPCATIKD [MEGF10_Y1030_Y1030C]	0.66	0.445	0.492	0.554	0.468	0.509	0.602	0.465	0.812	0.438	0.823	0.494	0.43
0.503	0.706	1.56	HNLFSYPTKFE [MYO3A_Y1396_H1400Y_YF]	1.44	0.562	0.684	0.671	0.565	0.881	0.752	0.703	0.869	0.569	1.29	0.507	0.474
8.2	0.747	2.11	QDGYSYLSRQM [LDLR_Y847_P848L]	0.784	0.562	0.646	0.995	0.305	0.541	0.664	0.464	0.71	1.26	0.94	0.467	0.517
0.619	0.702	0.81	RAIGHYSATSK [FAM120A_Y328_Y327H]	0.665	0.542	0.942	0.576	0.522	0.777	0.892	0.665	0.964	0.757	0.97	0.819	0.684
0.541	0.946	0.584	IIEDPYFGNDS [ACP1_Y132_YF]	1.45	0.711	0.96	0.695	0.867	1.04	1.1	1.74	1.59	0.651	1.62	0.62	0.804
0.393	0.749	0.588	RNGDRYFKEIV [DCX_Y64_G67E]	0.469	0.472	0.559	0.703	0.572	0.548	1.51	0.559	0.546	0.514	0.705	0.626	0.55
